The record followed here is US20230279126A1 (published 2023).

The labels stand for the following.
T1: extracellular domain of human IL23R (hIL23R ECD) (human, UniProt Q5VWK5 24-355)
T1 construct: The immunogen was an ECD-human IgG1 hinge-Fc fusion
T1 sequence: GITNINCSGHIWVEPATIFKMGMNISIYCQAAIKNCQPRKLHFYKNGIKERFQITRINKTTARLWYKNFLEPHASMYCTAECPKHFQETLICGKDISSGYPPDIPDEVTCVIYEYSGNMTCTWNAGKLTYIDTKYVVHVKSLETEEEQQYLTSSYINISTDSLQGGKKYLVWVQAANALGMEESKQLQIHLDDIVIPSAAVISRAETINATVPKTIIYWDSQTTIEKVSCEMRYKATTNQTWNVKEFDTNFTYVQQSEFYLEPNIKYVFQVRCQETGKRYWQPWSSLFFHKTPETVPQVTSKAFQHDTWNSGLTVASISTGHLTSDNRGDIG

B1: hIL23R_VHH15 (VHH)
VHH: QVQLQESGGGSVQAGGSLRLSCAASPGTYTSRYMGWFRQAPGKEREGVATIWPAGGNTVYADSVKGRFTISQDGAKKTVYLQMNSLKPEDTAMYYCAAAKYGGTSLAPYTYNYWGQGTQVTVSS
notes: Phagemid clone with his-tag, periplasmic extract
B2: hIL23R_VHH17 (VHH)
VHH: QVQLQESGGGSVQAGGSLRLSCTASGYTFSTMKYMGWFRQAPGKEREGVAAIWIAAGNTYYADSVKGRFTISQDNTKNTVYLQMNSLKPEDTALYYCAAARYGFVPSTWYLPERYNYWGQGTQVTVSS
notes: as for B1
B3: hIL23R_VHH12 (VHH)
VHH: QVQLQESGGGSVQAGGSLRLSCAASGYTSSSRCMGWFRQAPGKEREGVARIYTPTRTTWYADSVKGRFTISQDNAKNTVYLEMASLKPEDTAKYFCAAGASCAVDLFSYWGQGTQVTVSS
notes: as for B1
B4: hIL23R_VHH11 (VHH)
VHH: QVQLQESGGGSVQAGGSLRLSCAASGYTYCSYDMTWYRQAPGKKREFVSAIDSDGSTSYADSVKGRFTISQDNAKNTVYLQMNSLKPEDTAMYYCKTDPIATISRRCDSYWGQGTQVTVSS
notes: as for B1
B5: hIL23R_VHH16 (VHH)
VHH: QVQLQESGGGSVEAGGALTLSCVASGYTYCNYDIAWYRQAPGKERKFVSAIASDGSTSYADSVKGRFTISQDNAKNTVYLQMNSLKPEDTAMYYCKTDPIATMTRRCDPYWGQGTQVTVSS
notes: as for B1
B6: hIL23R_VHH18 (VHH)
VHH: QVQLQESGGGSVQAGGSLRLACAASGYTYCNYDIAWYRQAPGKERKFVSAIASDGSTSYADSVKGRFTISQDNAKNTVYLQMNSLKPEDTAMYYCKTDPIATMTRRCDPYWGQGTQVTVSS
notes: as for B1
B7: hIL23R_VHH13 (VHH)
VHH: QVQLQESGGGSVQAGGSLRLSCAASGYTYCSYDMKWYRQAPGKKREFVSAIDSDGSTSYADSVKGRFTISQDNAKNTVYLQMNSLKPEDTAMYYCKTEGTIPVGVCPNYWGQGTQVTVSS
notes: as for B1
B8: hIL23R_VHH8 (VHH)
VHH: QVQLQESGGDSVQAGGSLRLSCAASGYTYCSYDMKWYRQAPGKEREFVSGIDSDGSISYADSVKGRFTISQDNAKNTVYLQMNSLKPEDTAMYYCKTEGTIPVGACPNYWGQGTQVTVSS
notes: as for B1
B9: hIL23R_VHH14 (VHH)
VHH: QVQLQESGGGLVQPGGSLRLSCAASGYTYCSYDMKWYRQAPGKKREFVSAIDSDGSTSYADSVKGRFTISQDNAKNTVYLQMNSLKPEDTAMYYCKTEGTVPVGVCPNYWGQGTQVTVSS
notes: as for B1
B10: hIL23R_VHH19 (VHH)
VHH: QVQLQESGGGSVQAGGSLRLSCAASGYTSCSYDMSWYRQAPGKKREFVSAIHSDGTTSYADSMKGRFTISQDNAKNTVYLQMNSLKPEDTAMYYCKTDPNYSDHVCPPYWGRGTQVTVSS
notes: as for B1

This assay has as its target T1, extracellular domain of human IL23R …. As to the kind of experiment: periplasmic extract ELISA (PE-ELISA) of phage clones, colorimetric. In a few lines: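 After multiple rounds of biopanning on the human or mouse extracellular domain, individual phage clones were screened for selective binding by colorimetric periplasmic extract ELISA in 96-well plates. The library was built from camels given human and then mouse receptor extracellular domain–human IgG1 hinge–Fc fusion proteins. Their blood RNA was transcribed, and the roughly 400 bp VHH fragment was placed in frame with a his-tag in a phagemid in E. coli.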
(In general: An ELISA detects its analyte on a solid surface through an enzyme-linked reagent.)
For the molecule B1, the binding result was “binds”.
B2: the binding result was “binds”.
For B3 the value was “binds”.
As for B4, the entry is “binds”; as for B5, “binds”; as for B6, “binds”.
Regarding B7, the binding result is reported as “binds”.
For B8 the value was “binds”; for B9, “binds”; for B10, “binds”.
